Measurements from US8153134 (SCHERING, dated 2012).
Like-named read-outs stand apart in the source and are kept apart here.

T1: human MDL-1 (human, UniProt Q9NY25 1-188)
T1 sequence: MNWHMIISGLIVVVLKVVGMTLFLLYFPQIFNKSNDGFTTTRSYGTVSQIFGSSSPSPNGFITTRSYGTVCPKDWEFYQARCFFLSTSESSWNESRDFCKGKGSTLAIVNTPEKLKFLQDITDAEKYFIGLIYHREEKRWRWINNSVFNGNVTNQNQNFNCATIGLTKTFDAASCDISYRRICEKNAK

T2: hMDL-1-hIG (human, UniProt Q9NY25 28-188)
T2 construct: Fusion of human MDL-1 with human Ig used in the BIAcore assay; MDL-1 is a type II membrane protein, so the Ig part may stand N-terminal; also called MDL-1-hIg ligand; not shown: human Ig part (hIG)
T2 sequence: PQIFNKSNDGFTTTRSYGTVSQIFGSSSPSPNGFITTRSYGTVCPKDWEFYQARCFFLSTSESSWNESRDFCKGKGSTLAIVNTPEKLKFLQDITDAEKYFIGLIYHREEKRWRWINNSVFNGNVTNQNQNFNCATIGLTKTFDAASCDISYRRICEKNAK


Experiments:
human MDL-1 [1] = target: T1, human MDL-1; assay: cell-based or functional assay
human MDL-1 [2] = target: T1, human MDL-1; assay: cell-based or functional assay; remark: listed apart in the source
human MDL-1 [3] = target: T1, human MDL-1; assay: cell-based or functional assay; remark: listed apart in the source
hMDL-1-hIG [4] = target: T2, hMDL-1-hIG; assay: BIAcore SPR; mAb as capture reagent, hMDL-1-hIG as analyte
Method: (§1) Determining the Equilibrium Dissociation Constant (K_d) for Humanized Anti-Human MDL-1 Antibodies Using BIAcore Technology BIAcore determinations are performed essentially as described at Example 4 of co-pending, commonly assigned U.S. patent application Ser. No. 11/511,635 (filed 29 Aug. 2006). Briefly, ligands (anti-MDL-1-hIg) are immobilized on a BIAcore CM5 sensor chip using standard amine-coupling procedure. Kinetic constants for the various interactions are determined using BIAevaluation software 3.1. The K_d is determined using the calculated dissociation and association rate constants.
(§2) For antibodies DX233, DX239, and DX240, the antibodies were used as the capture reagent and the MDL-1-hIg ligand was used as the analyte. Affinity measurements for DX233, DX239, and DX240 were as follows.

hMDL-1-hIG [5] = target: T2, hMDL-1-hIG; assay: BIAcore SPR; mAb as capture reagent, hMDL-1-hIG as analyte; apparent Kd
Method: as §1, §2

human MDL-1 [6] = target: T1, human MDL-1; assay: cell-based or functional assay; remark: listed apart in the source
hMDL-1-hIG [7] = target: T2, hMDL-1-hIG; assay: BIAcore SPR; hMDL-1-hIG as capture antigen on the chip, mAb as analyte
Method: as §1

hMDL-1-hIG [8] = target: T2, hMDL-1-hIG; assay: BIAcore SPR; hMDL-1-hIG as capture antigen on the chip, mAb as analyte; apparent Kd
Method: as §1

| Binder | secreted beta-hexosaminidase, OD (405-570), DT808 mouse mast cells, cross-link (human MDL-1 [1]) | secreted beta-hexosaminidase, OD (405-570), DT808 mouse mast cells, no cross-link (human MDL-1 [1]) | increase in CD11b surface expression on human neutrophils, Mean Fluorescent Intensity as compared to isotype control treatment (human MDL-1 [2]) | increase in CD66b surface expression on human neutrophils, Mean Fluorescent Intensity as compared to isotype control treatment (human MDL-1 [2]) | decrease of CD62L staining (MFI) of human neutrophils, isotype control treatment minus anti-hMDL-1 treatment (human MDL-1 [3]) | koff (hMDL-1-hIG [4]) | kon (hMDL-1-hIG [4]) | Kd (hMDL-1-hIG [5]) | secreted beta-hexosaminidase, OD (405-570), DT808 mouse mast cells, cross-link (human MDL-1 [6]) | secreted beta-hexosaminidase, OD (405-570), DT808 mouse mast cells, no cross-link (human MDL-1 [6]) | koff (hMDL-1-hIG [7]) | kon (hMDL-1-hIG [7]) | Kd (hMDL-1-hIG [8]) |
| --- | --- | --- | --- | --- | --- | --- | --- | --- | --- | --- | --- | --- | --- |
| DX240 (antibody, V domains shown, Rodent anti-human MDL-1 monoclonal antibody from a hybridoma; VL of the kappa subclass; also called anti-MDL-1 antibody clone DX240; ATCC PTA-9136) VH: QVQLLQSGAELVKPGASVKISCKASGYTFTDHAIHWVKQKPEQGLEWIGYISPGDGDIKYNEKFKDKATLTADKSSSIAYMQLNSLTSEDSAVYFCKNFDYDFIFDFWGQGTTLTVSS VL: DIVMSQSPSSLAVSAGETVTMSCKSSQSLLNSRARKNYLAWYQQKPGQSPKLLIYWASTRESGVPDRFTGSGSGTDFTLTISSVRAEDLAVYYCKQSYNLYTFGGGTKLEIKR | 3.25 OD (405-570) | 1.83 OD (405-570) | 336 MFI | 97 MFI | 114 MFI | 0.000325 s⁻¹ | 8000 M⁻¹ s⁻¹ | 43 nM | – | – | – | – | – |
| DX230 (antibody, V domains shown, Rodent anti-human MDL-1 monoclonal antibody from a hybridoma; VL of the kappa subclass; also called anti-MDL-1 antibody clone DX230; ATCC PTA-8373) VH: EVQLVESGGDLVKPGGSLKLSCAASGFAFSNYDMSWVRQTPEKRLEWVAYISGGGGTTYYSDTVKGRFTISRDNAKNTLYLQMSSLKSEDTAMYYCVRHAVYYGKPYWGQGTTLTVSS VL: DIVLTQSPPSLAVSLGQRATVSCRASESVEHYGTGLMQWYQQKPGQPPRLLIYAASNVESGVPARFSGSGSGTDFSLNIHPVEEDDIAMYFCQQSRKVPWTFGGGTKLEIKR | – | – | – | – | – | – | – | – | 3.17 OD (405-570) | 3.32 OD (405-570) | 0.0016 s⁻¹ | 63000 M⁻¹ s⁻¹ | 25.2 nM |
| DX239 (antibody, V domains shown, Parental rodent anti-human MDL-1 monoclonal antibody (not the humanized form); VL of the kappa subclass; also called anti-MDL-1 antibody clone DX239; ATCC PTA-9135) VH: QVQLQQSGAELVRPGTSVKISCKASGYGFNNYWLGWVKQRPGHGLEWIGDIYPGSGNTYYNENFKGRATLTADKSSTTAYMQVSSLTSEDSAVYFCARGKESFAYWGQGTLVTVSA VL: not shown | 3.14 OD (405-570) | 1 OD (405-570) | 377 MFI | 107 MFI | 142 MFI | 0.000336 s⁻¹ | 10000 M⁻¹ s⁻¹ | 37.9 nM | – | – | – | – | – |
| DX233 (antibody, V domains shown, Rodent anti-human MDL-1 monoclonal antibody from a hybridoma; VL of the kappa subclass; also called anti-MDL-1 antibody clone DX233) VH: EVQMQQSGAELVKPGASVKLSCTASGFNIKDTYMHWVKQRPEQGLEWIGRIDPANGITKSDPKFQGKATITADTSSNTAYLQLNSLTSEDTAVYSCAPYSGNYVWFPYWGQGTLVTVSA VL: DIVMTQSHKFMSTSVGDRVNITCKASQDVGTAVAWYQRKPGKSPQVLIYWASTRHTGVPDRFTGSGSGTDFTLTISNVQSEDLADYFCQQYRSYPLTFGAGTKLELKR | 3.21 OD (405-570) | 1.22 OD (405-570) | 303 MFI | 90.5 MFI | 96.9 MFI | 0.000147 s⁻¹ | 20000 M⁻¹ s⁻¹ | 8.65 nM | – | – | – | – | – |

The remaining lines, values ahead:

| secreted beta-hexosaminidase, OD (405-570), DT808 mouse mast cells, cross-link (human MDL-1 [1]) | secreted beta-hexosaminidase, OD (405-570), DT808 mouse mast cells, no cross-link (human MDL-1 [1]) | increase in CD11b surface expression on human neutrophils, Mean Fluorescent Intensity as compared to isotype control treatment (human MDL-1 [2]) | increase in CD66b surface expression on human neutrophils, Mean Fluorescent Intensity as compared to isotype control treatment (human MDL-1 [2]) | decrease of CD62L staining (MFI) of human neutrophils, isotype control treatment minus anti-hMDL-1 treatment (human MDL-1 [3]) | koff (hMDL-1-hIG [4]) | kon (hMDL-1-hIG [4]) | Kd (hMDL-1-hIG [5]) | secreted beta-hexosaminidase, OD (405-570), DT808 mouse mast cells, cross-link (human MDL-1 [6]) | secreted beta-hexosaminidase, OD (405-570), DT808 mouse mast cells, no cross-link (human MDL-1 [6]) | koff (hMDL-1-hIG [7]) | kon (hMDL-1-hIG [7]) | Kd (hMDL-1-hIG [8]) | Binder |
| --- | --- | --- | --- | --- | --- | --- | --- | --- | --- | --- | --- | --- | --- |
| – | – | 393 MFI | 109 MFI | 152 MFI | – | – | – | 3.23 OD (405-570) | 3.39 OD (405-570) | 0.000817 s⁻¹ | 644000 M⁻¹ s⁻¹ | 1.27 nM | DX246 (antibody, V domains shown, Rodent anti-human MDL-1 monoclonal antibody from a hybridoma; VL of the kappa subclass; also called anti-MDL-1 antibody clone DX246; ATCC PTA-8376) VH: QVTLKESGPGILKPSQTLSLTCSFSGFSLSTSGMNVGWIRQPSGKGLEWLAHIWWDDDKYYNPSLKSQLTISKDTSRNQVFLKITSVDTADTATYYCARRAFYGSNYDYYAMDYWGQGTSVTVSS VL: ENVLTQSPAIMSASPGEKVTMTCSVSSSVSYIHWYQQKSSTSPKLWIYDTSKLASGVPGRFSGSGSGNSYSLTISSMEAEDVATYYCFQGSGYPLTFGAGTKLELKR |
| – | – | – | – | – | – | – | – | 3.28 OD (405-570) | 3.17 OD (405-570) | – | – | – | DX297 (antibody, V domains shown) VH: EVQLVESGGDLVKPGGSLKLSCTASGFAFSNYDMSWVRQTPEKRLEWVAYISGGGGTTYYSDTVKGRFTISRDNARNTLYLQMSSLKSEDTAIYYCARHPIYYGKPYWGQGTTLTVSS VL: DIVLTQSPASLAVSLGQRATISCRASESVEHYGTSLMQWYQQKPGQPPRLLIYAASNVESGVPARFSGGGSGTDFSLNIHPVEEDDIAMYFCQQNRKVPWTFGGGTKLEIKR |
| – | – | – | – | – | – | – | – | 3.25 OD (405-570) | 2.66 OD (405-570) | 7.3e-05 s⁻¹ | 354000 M⁻¹ s⁻¹ | 0.207 nM | DX241 (antibody, V domains shown, Rodent anti-human MDL-1 monoclonal antibody from a hybridoma; VL of the kappa subclass; also called anti-MDL-1 antibody clone DX241; ATCC PTA-8374) VH: DVKLVESGGGLVKLGGSLKLSCAASGFTFSSYYMSWVRQTPDKRLELVAAINSNGGTTYYPDTVKGRFTISRDNAKNTLYLQMSSLKPEDTALFYCVRDGEFGHYFDYWGQGTTLTVSS VL: SIVMTQTPKFLLVSAGDRVTITCKASQSVNNDVAWYQQKPGQSPKLLIYYASNRYTGVPDRFTGSGYGTDFTFTISTVQAEDLAVYFCQQDYNSPLTFGAGTKLELKR |
| – | – | 349 MFI | 110 MFI | 140 MFI | – | – | – | 3.36 OD (405-570) | 3.46 OD (405-570) | 6.8e-05 s⁻¹ | 277000 M⁻¹ s⁻¹ | 0.247 nM | DX244 (antibody, V domains shown, Parental rodent anti-human MDL-1 monoclonal antibody (not the humanized form); VL of the kappa subclass; also called anti-MDL-1 antibody clone DX244; ATCC PTA-8375) VH: QIQLVQSGPELKKPGETVKISCKASGYTFTIYAMNWVKQAPGKGLEWMGWINTDTGEPTYADDFKGRFAFSLETSASTAYLQINNLKNEDMATYFCARSSEVFYDYRFDYWGQGTALTVSS VL: DIQMTQSPSSLSASLGERVSLTCRASQDIGSSLNWLQQEPDGTIKRLIYATSNLDSGVPKRFSGSRSGSDYSLTISSLESEDFVHYYCLQYASSPFTFGSGTKLEIKR |
